Source: US20240336661A1, “PEPTIDES DERIVED FROM RUMINOCOCCUS TORQUES” (University of Copenhagen, priority 2021, published 2024)

B1: RUCILP1: 88 amino acid FNIII domain polypeptide of RUMTOR_00181 from Ruminococcus torques (protein)
chain: APVDVKVSEVTETSAKVSWKNAADGKEAAGYNVYVDGTKVNEELIAETTYNVSSLKDGTTYSVEVTAVDAAGEESAKSEKVEFTTVKK
modifications: Ruminococcus torques
notes: 88 amino acid FNIII domain polypeptide of RUMTOR_00181 from Ruminococcus torques
B2: RUCILP2: 87 amino acid irisin-like polypeptide cleaved from the Ruminococcus torques FNDC5-like protein RUMTOR_00181; recombinant, 6-His-tagged from E. coli (protein)
chain: APVDVKVSEITETSAKASWKNAADGKEAAGYNVYVDGVKLNKELLTEASCGLTNLKAETTYFVEVTAVDAAGNESVKSEKVTFKTLK
modifications: 6-His tag; Ruminococcus torques
notes: 87 amino acid irisin-like polypeptide cleaved from the Ruminococcus torques FNDC5-like protein RUMTOR_00181; recombinant, 6-His-tagged from E. coli

Tests used:
[1] = system: subcutaneous white adipose tissue (SWAT) and liver; experiment: Intraperitoneal RUCILP1 or RUCILP2 for 7 days in mice, gene expression in SWAT and liver; type: in vivo, mouse; conditions: 1 mg/kg i.p.
Description: FIG. 46. Effects of RUCILP1 and RUCILP2 on gene expression in vivo. Recombinant RUCILPs were daily injected into peritoneum of 8-week-old wild type C57BL/6N mice at a concentration of 1 mg/kg for one week. The mRNA levels of indicated genes in subcutaneous white adipose tissue (SWAT) and liver were analyzed by qRT-PCR. n=6 animals per group. * indicates p<0.05 using one-way ANOVA followed by Dunnett post hoc correction. Data are expressed as mean±SEM.
For the RUCILPs intervention study, male mice (n=6 per group, 8 weeks of age) fed with standard chow diet were treated daily with an in intraperitoneal injection of 1 mg/kg recombinant RUCILP1, RUCILP2, or saline, respectively, for a week. All animals were then sacrificed and subcutaneous fat pads and liver were collected. The mRNA levels of indicated genes in subcutaneous fat and liver were analyzed by qRT-PCR as described in standard protocol for gene expression analysis.
(§1) Total RNA from cells or tissues was extracted according to the instructions provided by manufacturer of RNeasy mini kit (Qiagen) using QIAzol lysis reagent (Qiagen), followed by measurements of RNA purities and concentrations by NanoDrop 2000 spectrophotometer (Thermo Scientific). A total of 1 μg of RNA was used for the reverse transcription to cDNA using the iScript™ Select cDNA Synthesis Kit (Bio-Rad Laboratories). The samples were subjected to real-time PCR using the LC480 system (Roche Diagnostics) after premixing with Precision®PLUS Master Mix (Primer Design). For each indicated gene, samples were run in duplicate in a 384-well plate and ΔΔCt method was used for quantifying the expressions after normalization to the housekeeping Rpl36 or GAPDH gene.

mouse 3T3-L1 fibroblasts = experiment: Gene expression in 3T3-L1 fibroblasts (q-PCR); type: cell-based; conditions: dose-response
Description: 3T3-L1 cells (a murine fibroblast cell line) were split onto 12-well plates and grown to confluence before inducing differentiation by treatment with 86 nM insulin, 0.1 μM dexamethasone, and 250 μM methyl isobutylxanthine. Two days after induction, cells were switched to an inducing medium in the presence of recombinant RUCILPs, or commercial recombinant irisin (Sigma, #SRP8039-10UG and Phoenix pharmaceuticals, #067-29A), or phosphate buffered saline (PBS) for two days. Subsequently, cells were maintained in 86 nM insulin in the presence of indicated concentrations of recombinant RUCILPs, 21-AABP1, commercial recombinant irisin, or PBS for four days with medium change every other day for 6 days. Cells were then harvested for q-PCR analysis as described in standard protocol for gene expression analysis.
as §1
Firstly, we tested the dose-response effects of RUCILPs on gene expression in mouse fibroblasts (3T3-L1), mouse […] (MLO-Y4), and mouse myoblasts (C2C12). To estimate effect on adipocyte browning, we measured expression of Ucp1, Prdm16, Pgc1a, Dio2 and Cox2, and expression of AdipoQ was measured as a marker of white adipocytes. As a marker of bone formation, we measured expression of Sclerostin; and markers of myotube formation included expression of Heyl, Sox3, and Stat3.

[2] = system: MLO-Y4 (murine long bone osteocyte-Y4) cell line; experiment: Sclerostin mRNA expression in MLO-Y4 cells; type: cell-based, mouse; conditions: for sclerostin expression levels: 150 nM, 24 h
Description: FIG. 11. […] The cells were incubated with FreeStyle293 medium for 4 hr and treated for 16 hr with indicated concentrations of RUCILP2 or irisin (Upper panel), with the addition at pretreatment with vehicle (phosphate-buffered saline) or 10 μM of integrin inhibitor cRGDyK for 10 min (Lower panel). Data are represented as mean±SEM, n=3 wells/group. Significant differences between two groups were evaluated using a two-tailed, unpaired Student's t test. Upper panel, *, p<0.05, **, p<0.01, #, p<0.05, ##, p<0.01, when compared with the blank group. Lower panel, *, p<0.05, when compared with the vehicle group.
MLO-Y4 cells were donated by Prof Moustapha Kassem from the University of Southern Denmark. The cells were seeded on type I collagen-coated 6-well plates under Minimum Essential Medium (α-MEM from Fisher Scientific, #15430584), supplemented with 2.5% Fetal Bovine Serum (FBS from Fisher Scientific, #11550356), 2.5% calf serum (Hyclone, SH30072.03), and 1% Penicillin-Streptomycin (Fisher Scientific, #11548876). Cell cultures were maintained in a humidified chamber with 5% CO2 at 37° C., and culture media were changed every 2-3 days.
At 60% confluence, medium was switched to FreeStyle293 Expression medium after washing with warm PBS. After 4 hours incubation, the cells were treated with recombinant RUCILP2 or commercial recombinant irisin (Sigma, #SRP8039-10UG and Phoenix pharmaceuticals, #067-29A) or saline for 24 h. For integrin inhibitor treatment, cells were treated with 10 μM of CycloRGDyK (Selleckchem, #S7844) for 10 minutes and washed with PBS before treated with recombinant RUCILP2 or commercial recombinant irisin or saline. After treatments, MLO-Y4 cells were harvested for qRT-PCR analysis of the mRNA level of sclerostin as described in gene expression analysis. […]

Molecule | gene markers for white adipocytes AdipoQ and Ppara in SWAT [1] | genes involved in gluconeogenesis G6pase and Pepck1 in liver [1] | thermogenic markers Ucp1, Prdm16, Dio2 in SWAT [1] | Adiponectin expression (mouse 3T3-L1 fibroblasts) | markers of adipocyte browning (Ucp1, Prdm16, Pgc1a, Dio2, Cox2) (mouse 3T3-L1 fibroblasts) | sclerostin expression levels [2] | sclerostin expression ([2]; MLO-Y4 cells, treated 16 hr)
B1 | did not find significant reduction | no effect | comparable effects | down-regulating | up-regulate | increase | 
B2 | diminishes expression | lowered expression | comparable effects | down-regulating | up-regulate | increase | stimulates sclerostin expression
